Test results taken from the supplement of paper PMC10567573.

B1: CDC25B (parent)
chain: FVDILESDLKDDDAVPPGMESLIS

Variants of: B1
Test: protein stability index of a GFP-peptide fusion (GPS, HEK-293T) (PSI 1-6); higher = more stable
Details: c terminus: a fixed tail appended
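Further: lentivirally expressed fusions sorted by FACS into six bins by GFP to DsRed ratio, PSI derived from sequencing read proportions per bin multiplied by bin number.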

**Q.** Which protein stability index does the source give for FVDKLESDLKDDDAVPPGMESLIS here?
**A.** The protein stability index was 2.

**Q.** With FVDILESDLKTDDAVPPGMESLIS as the variant, how does the protein stability index read?
**A.** The protein stability index was 3.28.

**Q.** Which protein stability index does the source give for FVDILESDLKVDDAVPPGMESLIS here?
**A.** The protein stability index was 2.61.

**Q.** With FVDILESDLKIDDAVPPGMESLIS as the variant, how does the protein stability index read?
**A.** The protein stability index was 2.6.

**Q.** With FVDILESDLKQDDAVPPGMESLIS as the variant, how does the protein stability index read?
**A.** The protein stability index was 2.51.

**Q.** Which protein stability index does the source give for FVDILESDLKEDDAVPPGMESLIS here?
**A.** Its protein stability index is 3.17.

**Q.** For FVDILESDLKSDDAVPPGMESLIS, which protein stability index is on record?
**A.** Its protein stability index is 2.94.

**Q.** Which protein stability index does the source give for FVDILESDLKKDDAVPPGMESLIS here?
**A.** The protein stability index was 3.02.

**Q.** With FVDILESDLKADDAVPPGMESLIS as the variant, how does the protein stability index read?
**A.** The protein stability index was 3.

**Q.** With FVDILESDLKMDDAVPPGMESLIS as the variant, how does the protein stability index read?
**A.** The protein stability index was 2.6.

**Q.** Which protein stability index does the source give for FVDILESDLKWDDAVPPGMESLIS here?
**A.** The protein stability index was 1.8.

**Q.** For FVDILESDLKGDDAVPPGMESLIS, which protein stability index is on record?
**A.** Its protein stability index is 2.78.

**Q.** With FVDILESDLKHDDAVPPGMESLIS as the variant, how does the protein stability index read?
**A.** Its protein stability index is 2.37.

**Q.** For FVDILESDLKCDDAVPPGMESLIS, which protein stability index is on record?
**A.** The protein stability index was 2.25.

**Q.** Which protein stability index does the source give for FVDILESDLKNDDAVPPGMESLIS here?
**A.** Its protein stability index is 2.5.

**Q.** Which protein stability index does the source give for FVDILESDLKLDDAVPPGMESLIS here?
**A.** Its protein stability index is 2.25.

**Q.** For FVDILESDLKYDDAVPPGMESLIS, which protein stability index is on record?
**A.** Its protein stability index is 2.71.

**Q.** With FVDILESDLKFDDAVPPGMESLIS as the variant, how does the protein stability index read?
**A.** The protein stability index was 2.52.

**Q.** With FVDILESDLKPDDAVPPGMESLIS as the variant, how does the protein stability index read?
**A.** Its protein stability index is 2.68.

**Q.** For FVDILESDLKRDDAVPPGMESLIS, which protein stability index is on record?
**A.** Its protein stability index is 2.25.

**Q.** With FVDILESDLKDDHAVPPGMESLIS as the variant, how does the protein stability index read?
**A.** Its protein stability index is 2.7.

**Q.** For FVDILESDLKDDKAVPPGMESLIS, which protein stability index is on record?
**A.** The protein stability index was 2.96.

**Q.** For FVDILESDLKDDNAVPPGMESLIS, which protein stability index is on record?
**A.** Its protein stability index is 2.67.

**Q.** Which protein stability index does the source give for FVDILESDLKDDCAVPPGMESLIS here?
**A.** The protein stability index was 2.56.

**Q.** With FVDILESDLKDDPAVPPGMESLIS as the variant, how does the protein stability index read?
**A.** Its protein stability index is 2.83.

**Q.** Which protein stability index does the source give for FVDILESDLKDDAAVPPGMESLIS here?
**A.** Its protein stability index is 3.04.

**Q.** With FVDILESDLKDDMAVPPGMESLIS as the variant, how does the protein stability index read?
**A.** The protein stability index was 2.33.

**Q.** For FVDILESDLKDDFAVPPGMESLIS, which protein stability index is on record?
**A.** The protein stability index was 2.38.

**Q.** For FVDILESDLKDDLAVPPGMESLIS, which protein stability index is on record?
**A.** Its protein stability index is 2.61.

**Q.** Which protein stability index does the source give for FVDILESDLKDDIAVPPGMESLIS here?
**A.** The protein stability index was 2.08.

**Q.** For FVDILESDLKDDEAVPPGMESLIS, which protein stability index is on record?
**A.** The protein stability index was 2.95.

**Q.** Which protein stability index does the source give for FVDILESDLKDDGAVPPGMESLIS here?
**A.** The protein stability index was 2.61.

**Q.** With FVDILESDLLDDDAVPPGMESLIS as the variant, how does the protein stability index read?
**A.** The protein stability index was 2.45.

**Q.** For FVDILESDLCDDDAVPPGMESLIS, which protein stability index is on record?
**A.** The protein stability index was 3.11.

**Q.** For FVDILESDLQDDDAVPPGMESLIS, which protein stability index is on record?
**A.** Its protein stability index is 2.97.

**Q.** For FVDILESDLDDDDAVPPGMESLIS, which protein stability index is on record?
**A.** The protein stability index was 2.91.

**Q.** Which protein stability index does the source give for FVDILESDLFDDDAVPPGMESLIS here?
**A.** The protein stability index was 2.63.

**Q.** With FVDILESDLWDDDAVPPGMESLIS as the variant, how does the protein stability index read?
**A.** The protein stability index was 2.43.

**Q.** For FVDILESDLPDDDAVPPGMESLIS, which protein stability index is on record?
**A.** The protein stability index was 3.1.

**Q.** Which protein stability index does the source give for FVDILESDLEDDDAVPPGMESLIS here?
**A.** Its protein stability index is 3.33.

**Q.** For FVDILESDLNDDDAVPPGMESLIS, which protein stability index is on record?
**A.** The protein stability index was 2.87.

**Q.** Which protein stability index does the source give for FVDILESDLIDDDAVPPGMESLIS here?
**A.** Its protein stability index is 2.72.

**Q.** For FVDILESDLMDDDAVPPGMESLIS, which protein stability index is on record?
**A.** The protein stability index was 3.2.

**Q.** Which protein stability index does the source give for FVDILESDLGDDDAVPPGMESLIS here?
**A.** The protein stability index was 3.5.

**Q.** Which protein stability index does the source give for FVDILESDLHDDDAVPPGMESLIS here?
**A.** The protein stability index was 2.97.

**Q.** Which protein stability index does the source give for FVDILESDLTDDDAVPPGMESLIS here?
**A.** The protein stability index was 3.46.

**Q.** With FVDILESDLRDDDAVPPGMESLIS as the variant, how does the protein stability index read?
**A.** Its protein stability index is 2.75.

**Q.** With FVDILESDLYDDDAVPPGMESLIS as the variant, how does the protein stability index read?
**A.** Its protein stability index is 2.59.

**Q.** For FVDILESDLADDDAVPPGMESLIS, which protein stability index is on record?
**A.** Its protein stability index is 2.77.

**Q.** Which protein stability index does the source give for FVDILESDLSDDDAVPPGMESLIS here?
**A.** Its protein stability index is 2.52.

**Q.** With FVDILESDLVDDDAVPPGMESLIS as the variant, how does the protein stability index read?
**A.** The protein stability index was 3.

**Q.** For FVDILESDIKDDDAVPPGMESLIS, which protein stability index is on record?
**A.** The protein stability index was 3.05.

**Q.** With FVDILESDFKDDDAVPPGMESLIS as the variant, how does the protein stability index read?
**A.** The protein stability index was 2.85.

**Q.** For FVDILESDHKDDDAVPPGMESLIS, which protein stability index is on record?
**A.** The protein stability index was 3.33.

**Q.** With FVDILESDYKDDDAVPPGMESLIS as the variant, how does the protein stability index read?
**A.** Its protein stability index is 3.18.

**Q.** With FVDILESDWKDDDAVPPGMESLIS as the variant, how does the protein stability index read?
**A.** The protein stability index was 2.97.

**Q.** For FVDILESDDKDDDAVPPGMESLIS, which protein stability index is on record?
**A.** Its protein stability index is 3.21.

**Q.** For FVDILESDPKDDDAVPPGMESLIS, which protein stability index is on record?
**A.** Its protein stability index is 3.62.

**Q.** Which protein stability index does the source give for FVDILESDRKDDDAVPPGMESLIS here?
**A.** The protein stability index was 3.08.

**Q.** Which protein stability index does the source give for FVDILESDMKDDDAVPPGMESLIS here?
**A.** Its protein stability index is 3.03.

**Q.** Which protein stability index does the source give for FVDILESDSKDDDAVPPGMESLIS here?
**A.** Its protein stability index is 3.36.

**Q.** For FVDILESDGKDDDAVPPGMESLIS, which protein stability index is on record?
**A.** The protein stability index was 3.05.

**Q.** With FVDILESDNKDDDAVPPGMESLIS as the variant, how does the protein stability index read?
**A.** Its protein stability index is 3.67.

**Q.** Which protein stability index does the source give for FVDILESDVKDDDAVPPGMESLIS here?
**A.** The protein stability index was 2.93.

**Q.** With FVDILESDAKDDDAVPPGMESLIS as the variant, how does the protein stability index read?
**A.** The protein stability index was 3.09.

**Q.** For FVDILESDTKDDDAVPPGMESLIS, which protein stability index is on record?
**A.** Its protein stability index is 3.23.

**Q.** With FVDILESDCKDDDAVPPGMESLIS as the variant, how does the protein stability index read?
**A.** Its protein stability index is 3.05.

**Q.** Which protein stability index does the source give for FVDILESDEKDDDAVPPGMESLIS here?
**A.** Its protein stability index is 3.39.

**Q.** For FVDILESDKKDDDAVPPGMESLIS, which protein stability index is on record?
**A.** The protein stability index was 3.4.

**Q.** With FVDILESDQKDDDAVPPGMESLIS as the variant, how does the protein stability index read?
**A.** The protein stability index was 3.18.

**Q.** With FVDICESDLKDDDAVPPGMESLIS as the variant, how does the protein stability index read?
**A.** The protein stability index was 3.02.

**Q.** For FVDIDESDLKDDDAVPPGMESLIS, which protein stability index is on record?
**A.** Its protein stability index is 4.61.

**Q.** Which protein stability index does the source give for FVDISESDLKDDDAVPPGMESLIS here?
**A.** Its protein stability index is 4.58.

**Q.** For FVDIWESDLKDDDAVPPGMESLIS, which protein stability index is on record?
**A.** Its protein stability index is 1.85.

**Q.** With FVDIKESDLKDDDAVPPGMESLIS as the variant, how does the protein stability index read?
**A.** Its protein stability index is 3.63.

**Q.** With FVDIIESDLKDDDAVPPGMESLIS as the variant, how does the protein stability index read?
**A.** Its protein stability index is 2.46.

**Q.** With FVDIHESDLKDDDAVPPGMESLIS as the variant, how does the protein stability index read?
**A.** The protein stability index was 3.7.

**Q.** Which protein stability index does the source give for FVDIVESDLKDDDAVPPGMESLIS here?
**A.** Its protein stability index is 3.03.

**Q.** Which protein stability index does the source give for FVDITESDLKDDDAVPPGMESLIS here?
**A.** Its protein stability index is 3.51.

**Q.** For FVDINESDLKDDDAVPPGMESLIS, which protein stability index is on record?
**A.** Its protein stability index is 3.81.

**Q.** For FVDIEESDLKDDDAVPPGMESLIS, which protein stability index is on record?
**A.** Its protein stability index is 4.46.

**Q.** For FVDIYESDLKDDDAVPPGMESLIS, which protein stability index is on record?
**A.** The protein stability index was 2.8.

**Q.** For FVDIRESDLKDDDAVPPGMESLIS, which protein stability index is on record?
**A.** The protein stability index was 2.94.

**Q.** Which protein stability index does the source give for FVDIAESDLKDDDAVPPGMESLIS here?
**A.** The protein stability index was 3.84.

**Q.** With FVDIMESDLKDDDAVPPGMESLIS as the variant, how does the protein stability index read?
**A.** The protein stability index was 3.57.

**Q.** With FVDIPESDLKDDDAVPPGMESLIS as the variant, how does the protein stability index read?
**A.** The protein stability index was 3.75.

**Q.** Which protein stability index does the source give for FVDIGESDLKDDDAVPPGMESLIS here?
**A.** Its protein stability index is 3.73.

**Q.** With FVDIFESDLKDDDAVPPGMESLIS as the variant, how does the protein stability index read?
**A.** Its protein stability index is 2.35.

**Q.** Which protein stability index does the source give for FVDIQESDLKDDDAVPPGMESLIS here?
**A.** The protein stability index was 3.67.

**Q.** For FVTILESDLKDDDAVPPGMESLIS, which protein stability index is on record?
**A.** Its protein stability index is 2.39.

**Q.** With FVWILESDLKDDDAVPPGMESLIS as the variant, how does the protein stability index read?
**A.** Its protein stability index is 1.91.

**Q.** Which protein stability index does the source give for FVYILESDLKDDDAVPPGMESLIS here?
**A.** The protein stability index was 2.15.

**Q.** With FVSILESDLKDDDAVPPGMESLIS as the variant, how does the protein stability index read?
**A.** Its protein stability index is 2.96.

**Q.** For FVVILESDLKDDDAVPPGMESLIS, which protein stability index is on record?
**A.** The protein stability index was 1.86.
